Test results published in patent US20110166062A1 (INDIANA UNIVERSITY RESEARCH AND TECHNOLOGY, published 2011).
Read-outs that look alike come from different tables or passages of the source. Bridges are numbered along the chain shown (N, C = ends). Primed or numbered codes have the meaning given here. Where no end group is shown, it is not given here. Side-chain parts run from the residue outwards. [ ]: non-standard residue; d: D form. maleimide = maleimide group on activated PEG, it reacts with the Cys thiol (Michael addition) to give a thioether linkage; PEG 40 kDa″ = polyethylene glycol of 40 kDa covalently attached to the side chain; PEG 40 kDa = PEG (40 kDa) covalently attached to Cys; Aib = CC(C)(N)C(=O)O

T1: GIP receptor (UniProt P48546 22-466)
T1 sequence (looked up): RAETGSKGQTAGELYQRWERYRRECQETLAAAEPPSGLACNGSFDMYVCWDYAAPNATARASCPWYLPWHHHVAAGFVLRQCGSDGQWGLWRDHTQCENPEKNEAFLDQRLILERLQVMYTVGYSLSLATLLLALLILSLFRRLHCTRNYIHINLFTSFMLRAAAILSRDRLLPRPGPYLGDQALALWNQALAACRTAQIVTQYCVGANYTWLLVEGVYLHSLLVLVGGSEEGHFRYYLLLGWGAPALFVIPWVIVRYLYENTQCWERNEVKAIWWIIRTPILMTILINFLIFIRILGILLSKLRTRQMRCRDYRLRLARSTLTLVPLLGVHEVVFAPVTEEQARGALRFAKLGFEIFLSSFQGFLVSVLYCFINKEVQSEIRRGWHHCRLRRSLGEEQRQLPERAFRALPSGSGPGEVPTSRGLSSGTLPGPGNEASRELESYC

T2: GIP receptor (UniProt P48546 22-466)
T2 sequence (looked up): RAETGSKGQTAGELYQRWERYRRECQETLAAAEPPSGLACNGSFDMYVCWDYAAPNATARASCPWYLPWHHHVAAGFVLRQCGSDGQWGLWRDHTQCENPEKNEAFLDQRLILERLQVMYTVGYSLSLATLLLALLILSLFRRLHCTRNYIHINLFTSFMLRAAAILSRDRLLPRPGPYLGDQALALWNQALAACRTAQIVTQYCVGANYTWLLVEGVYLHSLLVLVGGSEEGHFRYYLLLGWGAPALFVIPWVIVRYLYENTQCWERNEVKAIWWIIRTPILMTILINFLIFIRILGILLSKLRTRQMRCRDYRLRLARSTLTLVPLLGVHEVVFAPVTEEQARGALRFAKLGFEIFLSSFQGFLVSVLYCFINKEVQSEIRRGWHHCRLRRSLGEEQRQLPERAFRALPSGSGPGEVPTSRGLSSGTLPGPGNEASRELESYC


Legend:
Test in all cases: cell-based or functional assay
[1] = target: GLP-1 receptor (UniProt P43220 24-463, limits assumed)
[2] = target: glucagon receptor (UniProt P47871 26-477, limits assumed)
Target sequence in this assay (P47871 26-477 limits assumed): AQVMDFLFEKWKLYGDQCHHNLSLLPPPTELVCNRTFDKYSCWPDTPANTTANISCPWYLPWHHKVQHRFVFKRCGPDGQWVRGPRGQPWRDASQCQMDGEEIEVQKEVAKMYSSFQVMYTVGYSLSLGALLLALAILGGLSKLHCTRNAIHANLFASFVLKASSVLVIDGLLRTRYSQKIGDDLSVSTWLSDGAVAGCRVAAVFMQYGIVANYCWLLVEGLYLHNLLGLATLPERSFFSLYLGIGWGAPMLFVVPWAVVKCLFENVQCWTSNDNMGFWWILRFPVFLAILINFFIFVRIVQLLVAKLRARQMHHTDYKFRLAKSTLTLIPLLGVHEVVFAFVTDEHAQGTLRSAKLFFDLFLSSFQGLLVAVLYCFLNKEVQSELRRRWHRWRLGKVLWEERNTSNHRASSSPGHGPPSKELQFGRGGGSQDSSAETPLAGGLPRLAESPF

[3] = target: T1, GIP receptor
[4] = target: T2, GIP receptor; remark: listed apart in the source
[5] = target: glucagon receptor (UniProt P47871 26-477, limits assumed); remark: listed apart in the source
Target sequence in this assay (P47871 26-477 limits assumed): as above

[6] = target: GLP-1 receptor (UniProt P43220 24-463, limits assumed); remark: listed apart in the source

| Binder | EC50 [1] [nM] | relative activity [1] [%] | EC50 [2] [nM] | relative activity [2] [%] | EC50 [3] [nM] | relative activity [3] [%] | EC50 [4] [nM] | EC50 [5] [nM] | EC50 [6] [nM] |
| --- | --- | --- | --- | --- | --- | --- | --- | --- | --- |
| GTFTSDYSIYLDEQAAKEFVNWLLAG-NH2 (lactam 13-17; N-terminus assumed; SMILES CC[C@H](C)[C@H](NC(=O)[C@H](CO)NC(=O)[C@H](Cc1ccc(O)cc1)NC(=O)[C@H](CC(=O)O)NC(=O)[C@H](CO)NC(=O)[C@@H](NC(=O)[C@H](Cc1ccccc1)NC(=O)[C@@H](NC(=O)CN)[C@@H](C)O)[C@@H](C)O)C(=O)N[C@@H](Cc1ccc(O)cc1)C(=O)N[C@@H](CC(C)C)C(=O)N[C@@H](CC(=O)O)C(=O)N[C@H]1CCC(=O)NCCCC[C@@H](C(=O)N[C@@H](CCC(=O)O)C(=O)N[C@@H](Cc2ccccc2)C(=O)N[C@H](C(=O)N[C@@H](CC(N)=O)C(=O)N[C@@H](Cc2c[nH]c3ccccc23)C(=O)N[C@@H](CC(C)C)C(=O)N[C@@H](CC(C)C)C(=O)N[C@@H](C)C(=O)NCC(N)=O)C(C)C)NC(=O)[C@H](C)NC(=O)[C@H](C)NC(=O)[C@H](CCC(N)=O)NC1=O) [mt-197] | 35.3 | 0.07 | 47.7 | 0.13 |  |  |  |  |  |
| [Aib]QGTFTSDYSIYLDEEAVRLFVNWLLAGGPSSGAPPPS-NH2 (N-terminus assumed; SMILES CC[C@H](C)[C@H](NC(=O)[C@H](CO)NC(=O)[C@H](Cc1ccc(O)cc1)NC(=O)[C@H](CC(=O)O)NC(=O)[C@H](CO)NC(=O)[C@@H](NC(=O)[C@H](Cc1ccccc1)NC(=O)[C@@H](NC(=O)CNC(=O)[C@H](CCC(N)=O)NC(=O)C(C)(C)N)[C@@H](C)O)[C@@H](C)O)C(=O)N[C@@H](Cc1ccc(O)cc1)C(=O)N[C@@H](CC(C)C)C(=O)N[C@@H](CC(=O)O)C(=O)N[C@@H](CCC(=O)O)C(=O)N[C@@H](CCC(=O)O)C(=O)N[C@@H](C)C(=O)N[C@H](C(=O)N[C@@H](CCCNC(=N)N)C(=O)N[C@@H](CC(C)C)C(=O)N[C@@H](Cc1ccccc1)C(=O)N[C@H](C(=O)N[C@@H](CC(N)=O)C(=O)N[C@@H](Cc1c[nH]c2ccccc12)C(=O)N[C@@H](CC(C)C)C(=O)N[C@@H](CC(C)C)C(=O)N[C@@H](C)C(=O)NCC(=O)NCC(=O)N1CCC[C@H]1C(=O)N[C@@H](CO)C(=O)N[C@@H](CO)C(=O)NCC(=O)N[C@@H](C)C(=O)N1CCC[C@H]1C(=O)N1CCC[C@H]1C(=O)N1CCC[C@H]1C(=O)N[C@@H](CO)C(N)=O)C(C)C)C(C)C) [mt-194] | 4.16 | 0.63 |  |  |  |  |  |  |  |
| Y[Aib]EGTFTSDYSIYLDEQAAKEFVNWLLAGGPSSGAPPPSC([maleimide-PEG 40 kDa])-NH2 (lactam 16-20) [mt-178] | 0.171 | 8.19 | 8.25 | 0.42 | 0.448 | 4.69 |  |  |  |
| Y[Aib]EGTFTSDYSIYLDKQAA[Aib]EFVNWLLAGGPSSGAPPPSKC-NH2 [mt-340] |  |  |  |  |  |  | 0.0028 | 10.5 | 0.0061 |
| Y[Aib]QGTFTSDYSIYLDEQAAKEFVC(PEG 40 kDa)WLLAG-NH2 (lactam 16-20) [mt-172] | 0.859 | 3.43 | 9.16 | 0.45 | 7.54 | 0.25 |  |  |  |
| Y[Aib]QGTFTSDYSIYLDEQAAKEFVC(PEG 40 kDa)WLLAGGPSSGAPPPS-NH2 (lactam 16-20) [mt-175] | 0.22 | 5.91 | 2.42 | 1.49 | 1.93 | 0.93 |  |  |  |
| FTSDYSIYLDEQAAKEFVNWLLAGGPSSGAPPPS-NH2 (not fully specified) [mt-192] | 47 | 0.06 |  |  |  |  |  |  |  |
| Y[Aib]QGTFISDYSIYLDEQAAKEFVNWLLAGGPSSGAPPPSC-NH2 (lactam 16-20) [mt-176] | 8.69 |  | 0.141 |  | 0.055 |  |  |  |  |
| Y[Aib]QGTFTSDYSIYLDEQAAKEFVNWLLAGGPSSGAPPPS-NH2 (N-terminus assumed; SMILES CC[C@H](C)[C@H](NC(=O)[C@H](CO)NC(=O)[C@H](Cc1ccc(O)cc1)NC(=O)[C@H](CC(=O)O)NC(=O)[C@H](CO)NC(=O)[C@@H](NC(=O)[C@H](Cc1ccccc1)NC(=O)[C@@H](NC(=O)CNC(=O)[C@H](CCC(N)=O)NC(=O)C(C)(C)NC(=O)[C@@H](N)Cc1ccc(O)cc1)[C@@H](C)O)[C@@H](C)O)C(=O)N[C@@H](Cc1ccc(O)cc1)C(=O)N[C@@H](CC(C)C)C(=O)N[C@@H](CC(=O)O)C(=O)N[C@@H](CCC(=O)O)C(=O)N[C@@H](CCC(N)=O)C(=O)N[C@@H](C)C(=O)N[C@@H](C)C(=O)N[C@@H](CCCCN)C(=O)N[C@@H](CCC(=O)O)C(=O)N[C@@H](Cc1ccccc1)C(=O)N[C@H](C(=O)N[C@@H](CC(N)=O)C(=O)N[C@@H](Cc1c[nH]c2ccccc12)C(=O)N[C@@H](CC(C)C)C(=O)N[C@@H](CC(C)C)C(=O)N[C@@H](C)C(=O)NCC(=O)NCC(=O)N1CCC[C@H]1C(=O)N[C@@H](CO)C(=O)N[C@@H](CO)C(=O)NCC(=O)N[C@@H](C)C(=O)N1CCC[C@H]1C(=O)N1CCC[C@H]1C(=O)N1CCC[C@H]1C(=O)N[C@@H](CO)C(N)=O)C(C)C) [mt-191] | 0.011 | 209 | 1.46 | 4.32 | 0.189 | 16.9 |  |  |  |
| Y[Aib]EGTFTSDYSIYLDEQAAKEFVNWLLAGGPSSGAPPPSC-NH2 (lactam 16-20; N-terminus assumed; SMILES CC[C@H](C)[C@H](NC(=O)[C@H](CO)NC(=O)[C@H](Cc1ccc(O)cc1)NC(=O)[C@H](CC(=O)O)NC(=O)[C@H](CO)NC(=O)[C@@H](NC(=O)[C@H](Cc1ccccc1)NC(=O)[C@@H](NC(=O)CNC(=O)[C@H](CCC(=O)O)NC(=O)C(C)(C)NC(=O)[C@@H](N)Cc1ccc(O)cc1)[C@@H](C)O)[C@@H](C)O)C(=O)N[C@@H](Cc1ccc(O)cc1)C(=O)N[C@@H](CC(C)C)C(=O)N[C@@H](CC(=O)O)C(=O)N[C@H]1CCC(=O)NCCCC[C@@H](C(=O)N[C@@H](CCC(=O)O)C(=O)N[C@@H](Cc2ccccc2)C(=O)N[C@H](C(=O)N[C@@H](CC(N)=O)C(=O)N[C@@H](Cc2c[nH]c3ccccc23)C(=O)N[C@@H](CC(C)C)C(=O)N[C@@H](CC(C)C)C(=O)N[C@@H](C)C(=O)NCC(=O)NCC(=O)N2CCC[C@H]2C(=O)N[C@@H](CO)C(=O)N[C@@H](CO)C(=O)NCC(=O)N[C@@H](C)C(=O)N2CCC[C@H]2C(=O)N2CCC[C@H]2C(=O)N2CCC[C@H]2C(=O)N[C@@H](CO)C(=O)N[C@@H](CS)C(N)=O)C(C)C)NC(=O)[C@H](C)NC(=O)[C@H](C)NC(=O)[C@H](CCC(N)=O)NC1=O) [mt-174] | 0.017 | 118 | 57.5 | 0.06 | 0.023 | 95.7 |  |  |  |
| Y[Aib]QGTFTSDYSIYLDEQAAKEFVC(PEG 40 kDa″)WLMNG-NH2 (lactam 16-20) [mt-186] | 0.5 | 2.8 | 1.58 | 2.22 | 15.2 | 0.14 |  |  |  |
| Y[Aib]QGTFISDYSIYLDEQAAKEFVNWLLAGGPSSGAPPPSC(PEG 40 kDa)-NH2 (lactam 16-20) [mt-182] | 10 |  |  |  | 0.08 |  |  |  |  |
